Measured values reported in the supplement of paper PMC10126150.
± gives the standard deviation of the averaged measurements.

Test system: ATP
Experiment: switch fluorescence ratio, 500 uM ATP over buffer (Cy3 cluster intensity, sum of 5 cycles each) (fold (ratio)); higher = stronger signal-on switching upon ATP binding; sequences stand for … in TCGTCGGCAGCGTCAGATGTGTATAAGAGACAGTTTTTTTTTTTTTTTTTTTTTTTTT…TC
Conditions: aptamer strand: ATP DNA aptamer (quencher-CACCTGGGGGAGTATTGCGGAGGAAGG + anchor), 100 nM annealed; ATP concentration: 500 uM
Outline: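 After annealing to 100 nM quencher-labelled ATP aptamer, Cy3-labelled switching-strand clusters on a modified Illumina MiSeq flow-cell were imaged in selection buffer. A second image followed after 15 min with 500 uM ATP at 22 °C, and five such buffer/ATP cycles were done, each separated by NaOH stripping and re-annealing. The fluorescence ratio, averaged per switch-domain sequence, is summed target-cycle over summed buffer-cycle Cy3 intensity per cluster, with clusters outside 100-1000 RFU excluded.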
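Further: ATP exposure 15 min at 22 °C before imaging.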

Sequence	switch fluorescence ratio
AGATTGATGG	0.9848 ± 0.0026
AGATTGGAGA	1 ± 0.039
AGATTGGGGC	0.974 ± 0.013
AGATTGGTTG	0.985 ± 0.012
AGATTTATGT	1.01 ± 0.047
AGATTTTTCA	1 ± 0.021
AGATTTTTCG	1.04 ± 0.024
AGATTTTTTT	0.996 ± 0.031
AGCAAAAGGA	1.16 ± 0.22
AGCAACCGGT	1.1 ± 0.016
AGCAATATGG	2.49 ± 0.051
AGCACATGTC	1.07 ± 0.027
AGCAGAAATG	0.9979 ± 0.0074
AGCAGAGTGC	1.02 ± 0.055
AGCAGATAGG	1.03 ± 0.079
AGCAGGCCGG	0.976 ± 0.025
AGCAGGGAGC	1.01 ± 0.021
AGCAGTGTCT	1.04 ± 0.02
AGCATAGAGG	1.03 ± 0.03
AGCATATATG	1.02 ± 0.015
AGCATGAGAT	1.03 ± 0.039
AGCATTGAGG	0.984 ± 0.0067
AGCATTGTTT	0.985 ± 0.023
AGCCAGAGGG	1.005 ± 0.0055
AGCCATAAGG	1.012 ± 0.0061

Sequence	switch fluorescence ratio
AGCCATAGTC	1.113 ± 0.0056
AGCCATTAGC	0.992 ± 0.048
AGCCCGCCGG	1.03 ± 0.031
AGCCGGACGC	1.066 ± 0.0075
AGCCGGCCTG	1.02 ± 0.017
AGCCGTTTTT	0.973 ± 0.038
AGCCTAATGG	0.995 ± 0.041
AGCCTAGTTC	1.01 ± 0.026
AGCCTATACT	1.6 ± 0.16
AGCCTCGGTT	1.0014 ± 0.00098
AGCCTTTTTC	1.08 ± 0.091
AGCGAAAAGG	1 ± 0.041
AGCGACGGAC	1.42 ± 0.1
AGCGACTGTA	1.15 ± 0.22
AGCGAGACGT	1.12 ± 0.034
AGCGAGGGGC	1.02 ± 0.035
AGCGATTGCC	1.01 ± 0.016
AGCGCCAACA	1.02 ± 0.017
AGCGCCGCGT	1.09 ± 0.13
AGCGCCTCAG	1.003 ± 0.0081
AGCGCGGCGC	1.01 ± 0.051
AGCGCTATTT	1.04 ± 0.065
AGCGGAGTGA	1.007 ± 0.0093
AGCGGGGCGT	1.01 ± 0.014
AGCGGGGTCG	1 ± 0.011
